Results reported in article PMC2742357.
pKd: −log10 of the molar value. Values belong to the substance of their own block, whether it stands above or below them.

How the values were obtained:
[1] = molecular target: phosphorylated smooth muscle myosin (chicken (endogenous in gizzard)) (UniProt P10587); assay: co-sedimentation
[2] = molecular target: unphosphorylated smooth muscle myosin (chicken (endogenous in gizzard)) (UniProt P10587); assay: co-sedimentation
[3] = molecular target: unphosphorylated smooth muscle myosin (chicken (endogenous in gizzard)) (UniProt P10587)
[4] = molecular target: unphosphorylated smooth muscle myosin (chicken (endogenous in gizzard)) (UniProt P10587); assay: ELISA
[5] = molecular target: phosphorylated smooth muscle myosin (pSMM) (Gallus gallus) (UniProt P10587); conditions: cited from earlier work
[6] = molecular target: smooth muscle myosin (phosphorylated) (Gallus gallus) (UniProt P10587); conditions: cited from earlier work

Chain of MLCK (P11799 935-1906): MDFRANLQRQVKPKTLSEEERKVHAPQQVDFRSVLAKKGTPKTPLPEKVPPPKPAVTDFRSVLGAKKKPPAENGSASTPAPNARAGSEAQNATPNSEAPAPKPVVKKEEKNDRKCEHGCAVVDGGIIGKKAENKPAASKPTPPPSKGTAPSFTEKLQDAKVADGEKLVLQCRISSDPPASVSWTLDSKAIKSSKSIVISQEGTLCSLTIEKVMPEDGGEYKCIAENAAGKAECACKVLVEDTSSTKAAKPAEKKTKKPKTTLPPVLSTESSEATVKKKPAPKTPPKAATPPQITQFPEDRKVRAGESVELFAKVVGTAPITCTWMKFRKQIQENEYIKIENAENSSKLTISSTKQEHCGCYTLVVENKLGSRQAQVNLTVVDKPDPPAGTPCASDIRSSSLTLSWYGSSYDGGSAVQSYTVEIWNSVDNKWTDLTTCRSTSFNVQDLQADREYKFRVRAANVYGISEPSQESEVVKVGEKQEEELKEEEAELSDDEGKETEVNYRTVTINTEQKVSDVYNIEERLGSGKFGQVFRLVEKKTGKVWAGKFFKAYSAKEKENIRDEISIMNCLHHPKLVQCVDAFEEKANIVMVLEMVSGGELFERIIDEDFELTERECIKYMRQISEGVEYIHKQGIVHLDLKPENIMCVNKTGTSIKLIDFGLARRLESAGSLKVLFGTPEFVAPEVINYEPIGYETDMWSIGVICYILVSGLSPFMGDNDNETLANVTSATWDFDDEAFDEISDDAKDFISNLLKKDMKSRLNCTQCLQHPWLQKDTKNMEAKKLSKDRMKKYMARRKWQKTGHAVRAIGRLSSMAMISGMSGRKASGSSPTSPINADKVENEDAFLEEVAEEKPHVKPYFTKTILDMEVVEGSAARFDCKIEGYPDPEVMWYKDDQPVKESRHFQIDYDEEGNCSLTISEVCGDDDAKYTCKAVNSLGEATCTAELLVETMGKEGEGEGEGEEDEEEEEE

- Kd of the more weakly bound MLCK pool [1]: 23.8 µM
- Kd of the more weakly bound MLCK pool [2]: 9.5 µM
- percent of MLCK bound to SMM, spin 2 [2]: 75%
Substance: smooth muscle myosin light chain kinase (enzyme)

- pKd [3]: 5.30
- percent of actin displaced from SMM filaments at 50 uM telokin [2]: 5%
- percent of actin displaced from the SMM coverslip at 50 uM telokin [4]: 9%
Substance: telokin (natural protein)

Substance: smooth muscle myosin light chain kinase (MLCK) (from UniProt P11799)
- pKd [5]: < 4.00

Substance: MLCK (from UniProt P11799)
- pKd [6]: 6.11
